This is an account of results in patent US7825096B2, “O6-alkylguanine-DNA alkyltransferase inactivators and beta-glucuronidase cleavable prodrugs” (The United States of America as represented by the …, priority 2004, dated 2010).

In general, Km refers to the substrate concentration at which the rate is half of its maximum. A word on the Vmax: it is the top rate of the reaction or transport when substrate is in excess.

Assay type in all cases: biochemical
Substrate in series [1]: O=C(Nc1nc(OCc2ccccc2)c2nc[nH]c2n1)OCc1ccc(O[C@@H]2O[C@H](C(=O)O)[C@@H](O)[C@H](O)[C@H]2O)c([N+](=O)[O-])c1
The experiment in a line: Enzymatic hydrolysis of prodrugs by E. coli β-glucuronidase in MOPS buffer. The following applies: other: E. coli β-glucuronidase, 37° C., pH 7.0. On the procedure: (§1) The enzymatic hydrolysis of the prodrugs was investigated with both E. coli and bovine liver β-glucuronidase in MOPS buffer at pH 7.0. Prodrugs and p-nitrobenzyl alcohol (HPLC internal standard) were dissolved in the MOPS buffer (pH 7.0) at 37° C. Enzymatic cleavage was initiated by adding 0.2 Fishman units of E. coli β-glucuronidase (Sigma type IX-A) (42.8 units/mg of protein) or 10 Fishman units of bovine liver β-glucuronidase (Sigma type B-10) (10.2 units/mg of protein) to the incubation buffer. Aliquots (100 μL) of the reaction mixture were withdrawn at various times and were mixed with 100 μL of acetonitrile/0.1 M TEAA (6:4) to quench the enzymatic reaction. Prodrug and product concentrations were determined by HPLC. For determination of enzyme kinetic parameters, prodrug solutions at concentrations between 5 and 300 μM were incubated with a fixed amount of enzyme. Aliquots were withdrawn at time intervals varying from 1 to 20 min and the reactions were quenched as described above. Initial reaction velocities were determined at each substrate concentration. Non-linear regression methods were used to determine KM and Vmax values. Data were processed with Prism 3.0 software.

Substrate in series [2]: O=C(Nc1nc(OCc2ccccc2)c2ncn([C@H]3C[C@H](O)[C@@H](CO)O3)c2n1)OCc1ccc(O[C@@H]2O[C@H](C(=O)O)[C@@H](O)[C@H](O)[C@H]2O)c([N+](=O)[O-])c1
The description is as above. To be noted: other: E. coli β-glucuronidase, 37° C., pH 7.0. On the procedure:
as §1

Substrate in series [3]: O=C(Nc1nc(OCc2ccccc2)c2nc[nH]c2n1)OCc1ccc(O[C@@H]2O[C@H](C(=O)O)[C@@H](O)[C@H](O)[C@H]2O)c([N+](=O)[O-])c1
The series can be described thus: Enzymatic hydrolysis of prodrugs by bovine liver β-glucuronidase in MOPS buffer. The following applies: other: bovine liver β-glucuronidase, 37° C., pH 7.0. On the procedure: as §1

Substrate in series [4]: O=C(Nc1nc(OCc2ccccc2)c2ncn([C@H]3C[C@H](O)[C@@H](CO)O3)c2n1)OCc1ccc(O[C@@H]2O[C@H](C(=O)O)[C@@H](O)[C@H](O)[C@H]2O)c([N+](=O)[O-])c1
The description is as above. To be noted: other: bovine liver β-glucuronidase, 37° C., pH 7.0. On the procedure:
as §1

B1: E. coli β-glucuronidase (Escherichia coli K-12) (protein)
chain: MLRPVETPTREIKKLDGLWAFSLDRENCGIDQRWWESALQESRAIAVPGSFNDQFADADIRNYAGNVWYQREVFIPKGWAGQRIVLRFDAVTHYGKVWVNNQEVMEHQGGYTPFEADVTPYVIAGKSVRITVCVNNELNWQTIPPGMVITDENGKKKQSYFHDFFNYAGIHRSVMLYTTPNTWVDDITVVTHVAQDCNHASVDWQVVANGDVSVELRDADQQVVATGQGTSGTLQVVNPHLWQPGEGYLYELCVTAKSQTECDIYPLRVGIRSVAVKGEQFLINHKPFYFTGFGRHEDADLRGKGFDNVLMVHDHALMDWIGANSYRTSHYPYAEEMLDWADEHGIVVIDETAAVGFNLSLGIGFEAGNKPKELYSEEAVNGETQQAHLQAIKELIARDKNHPSVVMWSIANEPDTRPQGAREYFAPLAEATRKLDPTRPITCVNVMFCDAHTDTISDLFDVLCLNRYYGWYVQSGDLETAEKVLEKELLAWQEKLHQPIIITEYGVDTLAGLHSMYTDMWSEEYQCAWLDMYHRVFDRVSAVVGEQVWNFADFATSQGILRVGGNKKGIFTRDRKPKSAAFLLQKRWTGMNFGEKPQQGGKQ
notes: purchased Sigma type IX-A
In the case of B1, in series [1], the Km was 17.0 µM and the Vmax came out at 466000 µmol/mg/h. Moreover, in series [2], the Km was 41.1 µM and the Vmax was 677000 µmol/mg/h.

B2: bovine liver β-glucuronidase (Bos taurus) (protein)
chain: MLRGSAGAWAVLGPLLWGCGLSLLQGGMLYPRESRSRERKELDGLWSFRADFSDNRRQGFEQQWYRAPLRESGPTLDMPVPSSFNDVGQDGQLRSFVGWVWYEREITLPQRWTEDLGTRVVLRIGSAHYYAIVWVNGVHVLEHEGGHLPFEADISKLVQSGPLSSCRITIAINNTLSPHTLPPGTILYKTDPSMYPKGYFVQNTKFDFFNYAGLHRSVLLYTTPTTYIDDITVTTDMDQDIGLVNYQIIVQGSDHFQVDVSLLDEEGKVMAKGAGAEGQLQVPSAHLWWPYLMHEHPAYLYSLEVKLTAQTAVGPVSDFYTLPVGIRTVAVTKSQFLINGKPFYFRGVNKHEDADIRGKGFDWPLLVKDFNLLRWLGANAFRTSHYPYSEEVLQLCDRYGIVVIDESPGVGIVLVESFSNVSLQHHLEVMEEMIRRDKNHPAVVMWSLANEPASFLKPAGYYFKTLIAHTKALDPSRPVTFVTNTNYEADLGAPYVDIICVNSYYSWYHDYGHMEVIQLQLATQFENWYKAYQKPMIQSEYGADAIEGFHEDPPLMFSEEYQKGLLQQYHVVLDQKRKEYVVGELIWNFADFMTNQSPVRMIGNRKGIFTRQRQPKSAAFLLRERYWKLANETRYQRSAVTSQCVGSGLFTV
notes: bovine liver β-glucuronidase (Sigma type B-10) (10.2 units/mg of protein); purchased Sigma type B-10; host or cells: bovine liver
As for B2, the Km turned out to be 244 µM in series [3] and 362 µM in series [4].
